In CN111848800A (SANYOU BIOPHARMACEUTICALS CO LTD, dated 2020):

Tests used:
人PD-L1 (全长蛋白, on cells) [1] = molecular target: T1, 人PD-L1 (全长蛋白, on cells) (human, UniProt Q9NZQ7 19-290); experiment: FACS competition on human PD-L1-CHO cells against biotin PD-1-Fc (1 μg/mL)
T1 construct: whole, on cells; also called 人PD-L1-CHO; PD-L1-CHO

人PD-L1 (全长蛋白, on cells) [2] = molecular target: T1, 人PD-L1 (全长蛋白, on cells); experiment: FACS on human PD-L1-CHO cells, PE anti-human IgG Fc
人PD-L1 (全长蛋白, on cells) [3] = molecular target: T1, 人PD-L1 (全长蛋白, on cells); experiment: FACS competition on human PD-L1-CHO cells against biotin CD80 (1 μg/mL)
[4] = molecular target: T2, B7-H4 recombinant protein (义翘神州 10738-H08H) (UniProt Q7Z7D3 25-258); experiment: ELISA, protein coated at 2 μg/mL, anti-human IgG Fc-HRP; N/A means 未检出结合活性
T2 sequence (looked up): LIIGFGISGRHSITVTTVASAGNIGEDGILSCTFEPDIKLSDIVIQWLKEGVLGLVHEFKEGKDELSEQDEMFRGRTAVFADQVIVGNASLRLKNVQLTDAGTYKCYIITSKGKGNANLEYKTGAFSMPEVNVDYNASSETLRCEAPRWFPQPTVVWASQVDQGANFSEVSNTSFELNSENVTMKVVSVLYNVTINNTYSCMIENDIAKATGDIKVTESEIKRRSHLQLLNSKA

[5] = molecular target: T3, B7-H3 recombinant protein (义翘神州 11188-H08H) (UniProt Q5ZPR3 29-461); experiment: as above
T3 sequence (looked up): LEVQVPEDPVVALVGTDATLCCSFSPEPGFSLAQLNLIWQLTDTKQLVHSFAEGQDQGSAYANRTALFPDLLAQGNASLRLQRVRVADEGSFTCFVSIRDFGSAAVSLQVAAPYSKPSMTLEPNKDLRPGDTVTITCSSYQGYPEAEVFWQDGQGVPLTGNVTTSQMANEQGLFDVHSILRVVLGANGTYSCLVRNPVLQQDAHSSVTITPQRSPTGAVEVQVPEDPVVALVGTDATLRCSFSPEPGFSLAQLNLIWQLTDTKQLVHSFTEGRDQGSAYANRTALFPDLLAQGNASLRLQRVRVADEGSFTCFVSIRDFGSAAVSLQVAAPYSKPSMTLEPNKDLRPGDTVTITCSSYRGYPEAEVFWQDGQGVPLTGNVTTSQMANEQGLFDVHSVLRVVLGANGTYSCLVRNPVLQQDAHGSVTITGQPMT

[6] = molecular target: T4, B7-DC recombinant protein (义翘神州 10292-H08H-B) (UniProt Q9BQ51 20-219); experiment: as above
T4 sequence (looked up): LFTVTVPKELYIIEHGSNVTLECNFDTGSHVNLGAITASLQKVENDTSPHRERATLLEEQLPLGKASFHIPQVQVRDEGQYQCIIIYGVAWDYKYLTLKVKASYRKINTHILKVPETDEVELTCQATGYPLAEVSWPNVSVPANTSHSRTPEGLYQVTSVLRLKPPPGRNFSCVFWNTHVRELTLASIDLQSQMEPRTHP

[7] = molecular target: T5, B7-H2 recombinant protein (义翘神州 11559-H08H) (UniProt O75144 19-258); experiment: as above
T5 sequence (looked up): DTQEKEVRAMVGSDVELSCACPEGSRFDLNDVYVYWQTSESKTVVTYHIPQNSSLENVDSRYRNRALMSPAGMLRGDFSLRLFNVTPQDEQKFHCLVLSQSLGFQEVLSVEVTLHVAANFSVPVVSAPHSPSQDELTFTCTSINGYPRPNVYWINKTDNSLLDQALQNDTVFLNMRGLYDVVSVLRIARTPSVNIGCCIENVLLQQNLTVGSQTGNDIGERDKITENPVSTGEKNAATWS

[8] = molecular target: T6, 恒河猴PD-L1 (全长蛋白, on CHO-s cells) (rhesus monkey, UniProt F6VEW6 19-290); experiment: FACS on monkey PD-L1-CHO cells
T6 construct: whole, on cells; also called 猴PD-L1-CHO

[9] = molecular target: T7, 鼠PD-L1 (全长蛋白, on CHO-s cells) (mouse, UniProt Q9EP73 19-290); experiment: FACS on mouse PD-L1-CHO cells, PE anti-human IgG Fc
T7 construct: whole, on cells; also called 小鼠PD-L1-CHO; 鼠PD-L1-CHO
T7 sequence (Q9EP73 19-290): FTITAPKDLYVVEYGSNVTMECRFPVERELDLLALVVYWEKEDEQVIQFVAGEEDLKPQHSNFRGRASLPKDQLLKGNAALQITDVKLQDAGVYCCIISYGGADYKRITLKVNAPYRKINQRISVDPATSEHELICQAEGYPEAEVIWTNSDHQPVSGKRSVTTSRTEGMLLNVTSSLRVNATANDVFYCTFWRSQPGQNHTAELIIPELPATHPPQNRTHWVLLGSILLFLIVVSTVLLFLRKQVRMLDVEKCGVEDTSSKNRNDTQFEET

T1 sequence (Q9NZQ7 19-290): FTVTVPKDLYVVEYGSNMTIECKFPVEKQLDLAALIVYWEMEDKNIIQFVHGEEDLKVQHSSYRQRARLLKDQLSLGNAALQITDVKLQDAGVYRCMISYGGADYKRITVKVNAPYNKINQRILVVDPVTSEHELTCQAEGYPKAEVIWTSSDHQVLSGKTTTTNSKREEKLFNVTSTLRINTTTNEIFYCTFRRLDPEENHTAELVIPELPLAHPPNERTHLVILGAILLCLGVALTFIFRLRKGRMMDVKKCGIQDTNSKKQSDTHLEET

IC50 (人PD-L1 (全长蛋白, on cells) [1]): 0.39 µg/mL | EC50 (人PD-L1 (全长蛋白, on cells) [2]): 0.39 µg/mL | IC50 (人PD-L1 (全长蛋白, on cells) [3]): 0.631 µg/mL | binding result [4]: no binding | binding result [5]: no binding | binding result [6]: no binding | binding result [7]: no binding | EC50 [8]: 0.21 µg/mL | binding result [9]: no binding (tested: 20μg/mL)
B1: KN035 (Fc fusion)
chain: QVQLVESGGGLVQPGGSLRLSCAASGFTFSRRCKAWFRQAPGKERERVAKILTTSGSTYLADSVKGRFTISRDNSKNTVYLQMNSLRAEDTAVYYCAADSFEDPTCTLVTSSGAFQYWGQGTLVTVSS
notes: Control antibody made from the synthesised whole gene in ExpiCHO; the molecule is detected with anti-human IgG Fc; also called KN035(对照); 对照抗体KN035
